This is an account of results in PMC11329700.

B1: GST-Dyn1xA-PRR (dynamin 1xA proline-rich region, amino acids 746-864) [rat] / Amphiphysin 1 [rat (endogenous in rat brain synaptosomes)] (parent)
chain 1: NTTTVSTPMPPPVDDSWLQVQSVPAGRRSPTSSPTPQRRAPAVPPARPGSRGPAPGPPPAGSALGGAPPVPSRPGASPDPFGPPPQVPSRPNRAPPGVPSRSGQASPSRPESPRPPFDL
chain 2: MADIKTGIFAKNVQKRLNRAQEKVLQKLGKADETKDEQFEEYVQNFKRQEAEGTRLQRELRGYLAAIKGMQEASMKLTESLHEVYEPDWYGREDVKMVGEKCDVLWEDFHQKLVDGSLLTLDTYLGQFPDIKNRIAKRSRKLVDYDSARHHLEALQSSKRKDESRISKAEEEFQKAQKVFEEFNVDLQEELPSLWSRRVGFYVNTFKNVSSLEAKFHKEIAVLCHKLYEVMTKLGDQHADKAFSIQGAPSDSGPLRIAKTPSPPEEASPLPSPTASPNHTLAPASPAPVRPRSPSQTRKGPPVPPLPKVTPTKELQQENIINFFEDNFVPEINVTTPSQNEVLEVKKEETLLDLDFDPFKPDVTPAGSAAATHSPMSQTLPWDLWTTSTDLVQPASGGSFNDFTQPQDTSLFTMQTDQNMAETEQALPTEPQAEEPPTTAAAPTAGLDLGLEMEEPKEEAAIPPGTDAGETVGTEGSTGEEAEAEKAALPAGEGESPEGAKIDVESTELASSESPQAAELEAGAPQEKVIPSVVIEPASNHEGEEHQETTTGTETREATEDVAPQGPAGEKQELATEPTPLDSQAATPAPAGAVDASLSAGDAAQELPPGFLYKVETLHDFEAANSDELTLQRGDVVLVVPSDSEADQDAGWLVGVKESDWLQYRDLATYKGLFPENFTRHLE
B2: GST-Dyn1xA-PRR (dynamin 1xA proline-rich region, amino acids 746-864) [rat] / Endophilin A1 [rat (endogenous in rat brain synaptosomes)] (parent)
chain 1: B1 chain 1
chain 2: MSVAGLKKQFHKATQKVSEKVGGAEGTKLDDDFKEMERKVDVTSRAVMEIMTKTIEYLQPNPASRAKLSMINTMSKIRGQEKGPGYPQAEALLAEAMLKFGRELGDDCNFGPALGEVGEAMRELSEVKDSLDMEVKQNFIDPLQNLHDKDLREIQHHLKKLEGRRLDFDYKKKRQGKIPDEELRQALEKFDESKEIAESSMFNLLEMDIEQVSQLSALVQAQLEYHKQAVQILQQVTVRLEERIRQASSQPRREYQPKPRMSLEFATGDGTQPNGGLSHTGTPKPAGVQMDQPCCRALYDFEPENEGELGFKEGDIITLTNQIDENWYEGMLHGQSGFFPINYVEILVALPH

The first test covers variants of B1. Description: GST pull-down, densitometric analysis of Western blots. The settings on record: with Amphiphysin 1 [rat (endogenous in rat brain synaptosomes)]; parent: 100; read off a plot. On the technique in general: In western blotting, separated proteins are transferred to a membrane and probed.
On to chain 1 S29E S33E, for which the percent of parent was 98%. On to chain 1 S106E S112E, for which the percent of parent came out at 91%.

In the next test the parent is B2. The test is described as above. The settings on record: with Endophilin A1 [rat (endogenous in rat brain synaptosomes)]; parent: 100; read off a plot.
As to chain 1 S106E S112E, the percent of parent came out at 48%. With chain 1 S29E S33E, the percent of parent was found to be 31%.
